According to patent US11918645B2, “Vaccines against hepatitis B virus” (priority 2012, dated 2024):
Entries after “also recorded” stand apart in the source; their conditions may differ.

Experiments:
[1] = system: PBMC from chronic HBV-infected subjects; assay: IFNγ ELISpot of PBMC restimulated with individual unconjugated HBV long peptides (Example 5); type: cell-based, human; details: for T cell responses (IFNγ ELISpot), level and frequency of responders: HBeAg-negative inactive carriers and HBeAg-negative treated subjects, 5 μg/mL, 18 h, FIGS. 9 and 10; for T cell responses (IFNγ ELISpot) grouped by infecting HBV genotype: genotypes A, B, C & D, FIG. 11; for T cell responses (IFNγ ELISpot) grouped by ethnic background: three ethnic groups, FIG. 12
Description: One vial of PBMC from each subject (containing 1×10^7 cells) was thawed and lymphocyte numbers were determined using a Scepter™ automated handheld cell counter. PBMC were cultured in 2 mL culture medium (CM: RPMI-1640 Glutamax supplemented with 5% human AB serum) in 24 well cell culture plates at a concentration of 1×10^6 cells/mL for a total of 11 days. Cells were stimulated with a mixture of the nine HBV-derived long peptides described in Example 3.
Each peptide was used at a final concentration of 1 μg/peptide/mL. On Day 4, IL-2 and IL-15 were added to the cultures to final concentrations of 10 IU/mL and 10 ng/mL respectively. On Day 10, cells were washed twice in CM and cultured with 10 IU/mL IL-2 for 1 additional day. On Day 11, cells were washed twice in CM, counted and incorporated in a human IFNγ (interferon-gamma) ELISpot assay or intracellular cytokine staining.
Cells from short term cultures were plated in triplicate wells at 5×10^4 PBMC/well. Final antigen concentrations used were: 5 μg/mL for each individual peptides; PHA positive control: 1 μg/mL.

[2] = target: T1, HLA-DR7 (α1*01:01;β1*07:01) (Homo sapiens, UniProt P01903+P01911, A100R/A102G/A103Q/D57E/D86V/E43K/F76Y/K127E/L162R/M171V/P40G/Q125H/Q99D/R195Q/R33Q/R42Y/R54Q/S133A/S149N/S66F/T210M/V115G/Y107V/Y59L/Y89S); assay: ProImmune REVEAL MHC class II binding assay of long peptides; details: percentage of the signal of the positive control peptide; positive binding score >=15%
T1 construct: purchased ProImmune
Excerpt: (§1) The highly frequent HLA class II alleles HLA-DR1 (α1*01:01;β1*01:01), HLA-DR15 (α1*01:01;β1*15:01), HLA-DR3 (α1*01:01;β1*03:01), HLA-DR4 (α1*01:01;β1*04:01), HLA-DR11 (α1*01:01;β1*11:01), HLA-DR13 (α1*01:01;β1*13:01), and HLA-DR7 (α1*01:01;β1*07:01) were selected. Each peptide was given a score relative to the positive control peptide, which is a known T-cell epitope. The score of the test peptide is reported quantitatively as a percentage of the signal generated by the positive control peptide, and the peptide is indicated as having a putative pass or fail result. Good binders are considered to be those peptides with scores >=15% of the positive control as defined by Proimmune.

[3] = target: T2, HLA-DR15 (α1*01:01;β1*15:01) (Homo sapiens, UniProt P01903+P01911); assay: as above; details: percentage of the signal of the positive control peptide; positive binding score >=15%
T2 construct: purchased ProImmune
Excerpt: as §1

[4] = system: HLA-DP4 (α1*01:03;β1*04:01); assay: as above; set-up: species or system human; details: percentage of the signal of the positive control peptide; positive binding score >=15%
[5] = target: T3, HLA-DR13 (α1*01:01;β1*13:01) (Homo sapiens, UniProt P01903+P01911, A100E/A169T/K41T/L162R/M171V/P40S/Q125H/Q178H/Q39Y/Q99D/R42S/S66N/W38E/Y61H); assay: as above; details: percentage of the signal of the positive control peptide; positive binding score >=15%
T3 construct: purchased ProImmune
T3 sequence (P01903 26-216, other chains not shown): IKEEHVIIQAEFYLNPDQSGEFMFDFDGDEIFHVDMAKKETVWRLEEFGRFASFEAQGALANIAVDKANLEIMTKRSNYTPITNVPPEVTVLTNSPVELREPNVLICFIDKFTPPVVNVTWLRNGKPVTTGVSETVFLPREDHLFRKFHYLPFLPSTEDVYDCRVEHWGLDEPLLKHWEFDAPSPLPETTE
Excerpt: The highly frequent HLA class II alleles HLA-DR1 (α1*01:01;β1*01:01), HLA-DR15 (α1*01:01;β1*15:01), HLA-DR3 (α1*01:01;β1*03:01), HLA-DR4 (α1*01:01;β1*04:01), HLA-DR11 (α1*01:01;β1*11:01), HLA-DR13 (α1*01:01;β1*13:01), and HLA-DR7 (α1*01:01;β1*07:01) were selected. Each peptide was given a score relative to the positive control peptide, which is a known T-cell epitope.

HLA-A*0301 = target: T4, HLA-A*0301 (Homo sapiens, UniProt P04439); assay: ProImmune REVEAL MHC class I binding assay of nonamers; details: score as % of positive control peptide
T4 construct: purchased ProImmune
Excerpt: (§2) The number of HLA class I binding registers contained in each peptide may be determined by determining the ability of the peptide to bind to a range of frequently occurring HLA class I molecules. HLA class I binding may be measured using the ProImmune REVEAL® MHC-peptide Binding Assay (ProImmune Ltd, Oxford, UK). The REVEAL™ MHC peptide-binding assay measures the ability of each peptide to stabilize the ternary MHC-peptide complex for […], HLA-A*0201, HLA¬A*0301, HLA-A*2402, HLA-B*0702, HLA-B*0801, HLA-B*3501 representative of main HLA class I supertypes. Each tested peptide is given a score relative to a pass/fail control peptide and also compared to a positive control peptide.
(§3) Detection is based on the presence or absence of the native conformation of the MHC-peptide complex. The highly frequent HLA class I alleles (HLA-A*0201, A*0301, A*1101, A*2402, B*0702, B*0801, and B*3501) were selected. Binding to MHC molecules was compared to that of a known T-cell epitope, a positive control peptide, with very strong binding properties. […] The score of the test peptide is reported quantitatively as a percentage of the signal generated by the positive control peptide, and the peptide is indicated as having a putative pass or fail result. Good binders are considered to be those peptides with scores 45% of the positive control as defined by ProImmune.

HLA-B*3501 = HLA-B*3501 (Homo sapiens, UniProt P01889, A329T/A93T/A95T/C349S/D201E/D98Y/E176V/E187L/E204Q/E69T/I218V/K202T/L119I/Q94N/R155S/R180L/S121R/S35A/S48A/T118I/V127L/V306I/V36M/Y140S/Y91F); assay: as above; details: score as % of positive control peptide
Excerpt: as §2, §3

HLA-B*0702 = target: T5, HLA-B*0702 (Homo sapiens, UniProt P01889); assay: as above; details: score as % of positive control peptide
T5 construct: purchased ProImmune
Excerpt: as §2, §3

HLA-A*2402 = HLA-A*2402 (Homo sapiens, UniProt P04439, D101N/D140Y/D185E/E176V/E190D/F33S/G103R/G107R/I119L/I121M/I306V/K335N/L105A/L180Q/L300P/N151K/N90K/Q86E/Q94H/R106L/R138H/R89G/T104I/T345S/V100E/W191G/Y123F); assay: as above; details: score as % of positive control peptide
Excerpt: as §2, §3

HLA class I alleles = assay: ProImmune REVEAL MHC class I binding assay, summary over the seven alleles; set-up: species or system human; details: for Number of allele (b): number of class I alleles for which positive binding was detected; for Number of HLA binders (a): total number binding epitopes detected for each long peptide, seven class I alleles
Excerpt: as §2, §3

| Substance | T cell responses (IFNγ ELISpot), level and frequency of responders [1] | T cell responses (IFNγ ELISpot) grouped by infecting HBV genotype [1] | T cell responses (IFNγ ELISpot) grouped by ethnic background [1] | binding score, HLA-DR7 (α1*01:01;β1*07:01) [2] [%] | binding score, HLA-DR15 (α1*01:01;β1*15:01) [3] [%] | binding score, HLA-DP4 (α1*01:03;β1*04:01) [4] [%] | binding score, HLA-DR13 (α1*01:01;β1*13:01) [5] [%] | Number of nonamers having a binding score >= 45%, HLA-A*0301 (HLA-A*0301) | Number of nonamers having a binding score >= 45%, HLA-B*3501 (HLA-B*3501) | Number of nonamers having a binding score >= 45%, HLA-B*0702 (HLA-B*0702) | Number of nonamers having a binding score >= 45%, HLA-A*2402 (HLA-A*2402) | Number of allele (b) (HLA class I alleles) | Number of HLA binders (a) (HLA class I alleles) |
| --- | --- | --- | --- | --- | --- | --- | --- | --- | --- | --- | --- | --- | --- |
| NP753(K): unconjugated HBV long peptide, core KK + 738-770 (S to T at 743) + KKK (KKKEFGATVELLSFLPSDFFPSVRDLLDTASALYRKKK; HBV CONSENSUS SEQUENCE) | highest level of responses in both patient populations and in the highest proportion of subjects | highest responses across all four genotypes A, B, C & D | highest responses across all three ethnic groups | 0.00 | 0.00 | 0.65 | 0.00 | 0 | 1 | 1 | 3 | 6 | 10 |
| NP151: unconjugated HBV long peptide, polymerase region 134-168 (PEHVVNHYFQTRHYLHTLWKAGILYKRETTRSASF; HBV CONSENSUS SEQUENCE) | highest level of responses in both patient populations and in the highest proportion of subjects | highest responses across all four genotypes A, B, C & D | highest responses across all three ethnic groups | 19.41 | 38.96 | 74.36 | 0.00 | 4 | 0 | 3 | 4 | 6 | 21 |
| NP113: unconjugated HBV long peptide, polymerase region 96-130 of virtual HBV proteome (VGPLTVNEKRRLKLIMPARFYPNVTKYLPLDKGIK; HBV CONSENSUS SEQUENCE) | highest level of responses in both patient populations and in the highest proportion of subjects | highest responses across all four genotypes A, B, C & D; also recorded: highest T cell response across all four genotypes compared to all other peptides | highest responses across all three ethnic groups | 99.17 | 28.04 | 33.51 | 0.00 | 3 | 2 | 2 | 3 | 7 | 20 |
